{
  "source": "patent US20240124607A1",
  "about": "(Merck Sharp & Dohme, published 2024)",
  "binders": {"B1": {"name": "AB0621 F3' CEACAM5 TriNKET (bispecific antibody, human IgG1, kappa)", "chain": "DIVMTQSPDSLAVSLGERATINCKSSHSLLYGNFQNNYLAWYQQKPGQPPKLLIYWASTRESGVPDRFSGSGSGTDFTLTISSLQAEDVAVYYCQQYYSYPYTFGCGTKLEIKGGGGSGGGGSGGGGSGGGGSQVQLVQSGAEVKKPGASVKVSCKASGYTFTAYTIHWVRQAPGQCLEWMGYINPSSGYTEYNQKFKDRTTLTADTSISTAYMELSRLRSDDTAVYYCTREGGLLWFDYWGQGTLVTVSSGSDKTHTCPPCPAPELLGGPSVFLFPPKPKDTLMISRTPEVTCVVVDVSHEDPEVKFNWYVDGVEVHNAKTKPREEQYNSTYRVVSVLTVLHQDWLNGKEYKCKVSNKALPAPIEKTISKAKGQPREPRVYTLPPCRDELTKNQVSLTCLVKGFYPSDIAVEWESNGQPENNYKTTPPVLVSDGSFTLYSKLTVDKSRWQQGNVFSCSVMHEALHNHYTQKSLSLSPG", "heavy": "EVQLVESGGGLVKPGGSLRLSCAASGFTFSSYSMNWVRQAPGKGLEWVSSISSSSSYIYYADSVKGRFTISRDNAKNSLYLQMNSLRAEDTAVYYCARGAPIGAAAGWFDPWGQGTLVTVSSASTKGPSVFPLAPSSKSTSGGTAALGCLVKDYFPEPVTVSWNSGALTSGVHTFPAVLQSSGLYSLSSVVTVPSSSLGTQTYICNVNHKPSNTKVDKKVEPKSCDKTHTCPPCPAPELLGGPSVFLFPPKPKDTLMISRTPEVTCVVVDVSHEDPEVKFNWYVDGVEVHNAKTKPREEQYNSTYRVVSVLTVLHQDWLNGKEYKCKVSNKALPAPIEKTISKAKGQPREPQVCTLPPSRDELTENQVSLTCLVKGFYPSDIAVEWESNGQPENNYKTTPPVLDSDGSFFLYSWLTVDKSRWQQGNVFSCSVMHEALHNHYTQKSLSLSPG", "light": "DIQMTQSPSSVSASVGDRVTITCRASQGISSWLAWYQQKPGKAPKLLIYAASSLQSGVPSRFSGSGSGTDFTLTISSLQPEDFATYYCQQGVSFPRTFGGGTKVEIKRTVAAPSVFIFPPSDEQLKSGTASVVCLLNNFYPREAKVQWKVDNALQSGNSQESVTEQDSKDSTYSLSSTLTLSKADYEKHKVYACEVTHQGLSSPVTKSFNRGEC"}},
  "key": {"human FcγRI": {"molecular_target": "human FcγRI (human, UniProt P12314 16-288, limits assumed)", "sequence (P12314 16-288 limits assumed)": "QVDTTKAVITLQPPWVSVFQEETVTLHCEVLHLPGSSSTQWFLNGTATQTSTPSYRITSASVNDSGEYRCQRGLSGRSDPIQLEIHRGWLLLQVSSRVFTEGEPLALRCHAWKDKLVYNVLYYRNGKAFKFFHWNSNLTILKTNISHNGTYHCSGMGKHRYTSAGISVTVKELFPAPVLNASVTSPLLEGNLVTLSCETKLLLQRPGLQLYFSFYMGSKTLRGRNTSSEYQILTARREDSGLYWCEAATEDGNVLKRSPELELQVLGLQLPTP", "experiment": "SPR, AB0621 on Protein A chip, 25C, pH 7.4; reference not named", "description": "(§1) AB0621 was captured onto a Protein A chip (Cytiva, #29127556). Human FcγRs were titrated over captured AB0621 as 3-fold serial dilutions starting from 300 nM for FcγRI, 1000 nM for FcγRIIA R131 and H131, and 3000 nM for FcγRIIB and FcγRIIIB. Association was monitored for 120 sec and dissociation was monitored for 180 sec. Assays were run at 25° C. at pH 7.4. The surface of the chip was regenerated with 10 mM glycine pH 1.5 for 20 sec at 30 μL/min."}, "human FcγRIIA H131": {"molecular_target": "T1, human FcγRIIA H131 (human, UniProt P12318 34-218, limits assumed)", "T1 sequence (looked up)": "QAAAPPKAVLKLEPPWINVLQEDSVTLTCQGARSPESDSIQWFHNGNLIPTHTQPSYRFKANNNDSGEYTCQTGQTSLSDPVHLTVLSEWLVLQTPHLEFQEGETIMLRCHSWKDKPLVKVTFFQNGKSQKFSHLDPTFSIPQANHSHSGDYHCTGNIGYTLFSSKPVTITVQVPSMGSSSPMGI", "experiment": "SPR, AB0621 on Protein A chip, 25C, pH 7.4; reference not named", "description": "as §1"}, "human FcγRIIA R131": {"molecular_target": "T2, human FcγRIIA R131 (human, UniProt P12318 34-218, limits assumed)", "T2 sequence (looked up)": "T1 sequence (looked up) with H134R", "experiment": "SPR, AB0621 on Protein A chip, 25C, pH 7.4; reference not named", "description": "as §1"}, "human FcγRIIB": {"molecular_target": "T3, human FcγRIIB (human, UniProt P31994 43-217, limits assumed)", "T3 sequence (looked up)": "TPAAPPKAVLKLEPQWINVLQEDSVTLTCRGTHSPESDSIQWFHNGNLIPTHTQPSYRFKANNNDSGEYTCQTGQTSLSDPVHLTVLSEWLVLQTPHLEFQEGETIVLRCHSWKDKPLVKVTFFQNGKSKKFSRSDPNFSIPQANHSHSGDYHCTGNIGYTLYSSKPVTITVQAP", "experiment": "SPR, AB0621 on Protein A chip, 25C, pH 7.4; reference not named", "description": "as §1"}, "[1]": {"molecular_target": "T4, human CEACAM1 on Ba/F3 cells (human, UniProt P13688 35-526)", "T4 construct": "whole, on cells", "T4 sequence (looked up)": "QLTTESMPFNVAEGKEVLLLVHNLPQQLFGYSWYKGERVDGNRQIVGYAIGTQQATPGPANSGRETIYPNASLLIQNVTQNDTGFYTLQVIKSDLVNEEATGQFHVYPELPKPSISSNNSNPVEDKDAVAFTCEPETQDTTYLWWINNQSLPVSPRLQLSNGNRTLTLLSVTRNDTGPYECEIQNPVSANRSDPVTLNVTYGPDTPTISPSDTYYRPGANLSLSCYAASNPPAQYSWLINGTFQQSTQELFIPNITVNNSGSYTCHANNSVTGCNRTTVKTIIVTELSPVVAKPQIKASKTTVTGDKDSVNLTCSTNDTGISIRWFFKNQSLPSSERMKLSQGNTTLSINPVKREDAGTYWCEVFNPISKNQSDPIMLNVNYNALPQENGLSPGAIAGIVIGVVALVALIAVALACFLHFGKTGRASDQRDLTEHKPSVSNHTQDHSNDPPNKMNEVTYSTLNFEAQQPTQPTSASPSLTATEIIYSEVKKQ", "experiment": "flow cytometry on Ba/F3 cells expressing human CEACAM1, fold over background (FOB), 5-fold dilutions from 1600 nM", "description": "(§2) To examine the binding specificity of the TriNKETs to CEACAM5 compared to other CEACAM family members, Ba/F3 cells were engineered to express one of human CEACAM1, CEACAM6, CEACAM8, or cynomolgus CEACAM5. CEACAM5 TriNKETs were evaluated by flow cytometry starting at 1600 nM followed by 7 5-fold dilutions."}, "[2]": {"molecular_target": "T5, cynomolgus CEACAM5 on Ba/F3 cells (cynomolgus monkey)", "T5 construct": "whole, on cells", "experiment": "flow cytometry on Ba/F3 cells expressing cynomolgus CEACAM5, fold over background (FOB), 5-fold dilutions from 1600 nM", "description": "as §2"}},
  "note": "Substitutions are numbered along the chain they refer to.",
  "data": [
    {"binder": "B1", "values": [
      {"measurement": "KD/KD ref", "setting": "human FcγRI", "value": 0.64, "unit": "fold"},
      {"measurement": "KD/KD ref", "setting": "human FcγRIIA H131", "value": 0.68, "unit": "fold"},
      {"measurement": "KD/KD ref", "setting": "human FcγRIIA R131", "value": 0.68, "unit": "fold"},
      {"measurement": "KD/KD ref", "setting": "human FcγRIIB", "value": 0.94, "unit": "fold"},
      {"measurement": "binding result", "setting": "[1]", "value": "no binding (tested: 1600 nM)"},
      {"measurement": "EC50 (read off the curve)", "setting": "[2]", "value": "~50", "unit": "nM"}
    ]}
  ]
}
